# From PMC3963969
# Target: Rad4/Cut5 (UniProt P32372)
# Assay: anti-HA IP of Rad9, anti-Rad4 blot
# Details: reference: wild-type Rad9; sites T412
substance,measurement,value
Rad9 (from UniProt P26306) Rad9-T412A,binding against the reference,lost
